Experimental data as given in US20250074980A1 (BRIGHAM AND WOMEN S HOSPITAL, published 2025).
Values joined by “and” are separate entries in the source; they are usually repeats but may differ in a detail not shown here. Equal entries are not always repeated.

T1: CEACAM3 (recombinant protein) (human, UniProt P40198 35-155, limits assumed)
T1 construct: construct not described
T1 sequence (looked up): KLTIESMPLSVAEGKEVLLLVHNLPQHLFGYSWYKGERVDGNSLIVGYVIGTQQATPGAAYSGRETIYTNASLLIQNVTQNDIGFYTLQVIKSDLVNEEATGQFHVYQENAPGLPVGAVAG

T2: His-tagged CEACAM1 (human, UniProt P13688 35-428)
T2 construct: 45 kDa SPR analyte; also called CEACAM1-HIS; CEACAM1 analyte
T2 sequence: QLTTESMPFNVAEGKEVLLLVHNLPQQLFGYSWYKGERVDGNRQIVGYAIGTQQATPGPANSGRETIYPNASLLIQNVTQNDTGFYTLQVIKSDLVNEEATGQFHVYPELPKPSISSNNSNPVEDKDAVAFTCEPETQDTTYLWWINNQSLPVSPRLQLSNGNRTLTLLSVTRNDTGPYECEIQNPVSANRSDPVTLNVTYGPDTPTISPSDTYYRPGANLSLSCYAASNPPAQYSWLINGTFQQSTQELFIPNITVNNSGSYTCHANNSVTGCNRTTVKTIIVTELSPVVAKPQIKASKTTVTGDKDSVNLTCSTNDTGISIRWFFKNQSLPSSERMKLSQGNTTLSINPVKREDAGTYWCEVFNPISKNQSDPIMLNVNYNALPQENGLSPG


Tests used:
[1] = molecular target: T1, CEACAM3 (recombinant protein); experiment: SPR single-cycle kinetics, antibody captured on Protein A, CEACAM-3 injected at three rising concentrations
Procedure: In order to assess the binding of the humanized, affinity matured reformatted lead IgGs, single-cycle kinetics analysis was performed on crude supernatants using a Biacore T200 running Biacore T200 Control Software V2.0.1 and Biacore T200 Evaluation Software V3.0. Antibodies were diluted in HBS-P+ to a final concentration of 0.5 μg/ml. At the start of each cycle, antibodies were loaded onto Fc2, Fc3 and Fc4 of the Protein A chip. IgGs were captured at a flow rate of 10 μl/min to give an immobilisation level (RL) of ˜100 RU (a level calculated to obtain a Rₘₐₓ of ˜50-150 RU once the analyte is bound). The surface was then allowed to stabilize. Single-cycle kinetics data was obtained with CEACAM1 as the analyte at a flow rate of 80 μl/min to minimize any potential mass transfer effects. Multiple repeats with the parent (VH1/Vκ8 S29A) antibody were performed to check the stability of the surface and analyte over the kinetic cycles. The signal from the reference channel Fc1 (no antibody) was subtracted from that of Fc2, Fc3 and Fc4 to correct for differences in non-specific binding to the reference surface. A three point, two-fold dilution range from 70 nM to 280 nM CEACAM1 without regeneration between each concentration was used. The signal from each antibody blank run (no CEACAM1) was subtracted to correct for differences in surface stability. The association phase for the three injections of increasing concentrations of CEACAM1 was monitored for 80 seconds each time and a single dissociation phase was measured for 150 seconds following the last injection of CEACAM1. Regeneration of the Protein A surface was conducted using two injections of 10 mM glycine-HCL pH 1.5 followed by a stabilization period of 250 seconds.
To further assess the binding selectivity of CEACAM1 antibodies VH0/Vκ0, CP08H03/Vκ8 S29A, CP08H03/CP08F05 CEACAM1 over other proteins, binding affinities to CEACAM1, CEACAM3, CEACAM5, and CEACAM6 were compared using single-cycle kinetics analysis performed as described above. Single cycle kinetics was conducted using CEACAM concentrations from 280 nM to 70 nM.

[2] = molecular target: T2, His-tagged CEACAM1; experiment: SPR multi-cycle, purified IgG captured
Procedure: Variants CP08H03/Vκ8 S29A and CP08H03/CP08F05 were further analyzed using multi-cycle kinetics analysis, using a Biacore T200 instrument running Biacore T200 Evaluation Software V3.0.1. The purified antibodies were diluted to a concentration of 1 μg/ml in HBS-P+. At the start of each cycle, each antibody was captured on the Protein A surface to give an RL of ˜100 RU. Following capture, the surface was allowed to stabilize. Kinetic data was obtained using a flow rate of 80 μl/min to minimize any potential mass transfer effects. Multiple repeats of the blank (no CEACAM1) and a repeat of a single concentration of the analyte were programmed into the kinetic run in order to check the stability of both the surface and analyte over the kinetic cycles. For kinetic analysis, a two-fold dilution range was selected from 100 to 1.56 nM CEACAM1. The association phase of CEACAM1 was monitored for 150 seconds and the dissociation phase was measured for 150 seconds. Regeneration of the Protein A surface was conducted using two injections of 10 mM glycine-HCL pH 1.5 at the end of each cycle.
The signal from the reference channel Fc1 was subtracted from that of Fc2, Fc3 and Fc4 to correct for differences in non-specific binding to a reference surface, and a global Rmax parameter was used in the 1-to-1 binding model. The relative Kp compared to Parent (VH1/Vκ8 S29A) was calculated by dividing the Kp of the affinity matured composite human antibody variants by that of the Parent on the same chip. The kinetic parameters measured for the interaction of CEACAM1 with affinity matured CEACAM1 antibody variants CP08H03/Vκ8 S29A and CP08H03/CP08F05 are shown in Table 23.

[3] = molecular target: T2, His-tagged CEACAM1; experiment: SPR single-cycle, purified IgG captured
Procedure, shortened: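 Surface plasmon resonance single-cycle kinetics on a Biacore T200 at 25° C in HBS-P+ (pH 7.4). Purified IgG was captured on a Series S Protein A chip and His-tagged CEACAM1 was the analyte. Reference-channel and blank-run signals were subtracted. Kon, koff and Kd were fitted, and relative KD was calculated against the parent antibody assayed in the same experiment.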

[4] = molecular target: T2, His-tagged CEACAM1; experiment: SPR single-cycle, supernatant IgG captured
Procedure, shortened: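 On a Biacore T200 run at 25° C in HBS-P+ (pH 7.4), IgG captured on Protein A was probed with His-tagged CEACAM1 by single-cycle surface plasmon resonance. Fitted Kon, koff and Kd gave a relative KD referenced to the parent antibody from the same experiment. The IgG came from filtered, ELISA-quantified supernatants of HEK EBNA cells transiently transfected with PEI and harvested after 5-7 days.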

Row | binding result [1] | Kd [2] | koff [2] | kon [2] | Kd [3] [nM] | koff [3] [s⁻¹] | kon [3] [M⁻¹ s⁻¹] | relative KD to parent [3] | Kd [4] [nM] | koff [4] [s⁻¹] | kon [4] [M⁻¹ s⁻¹] | relative KD to parent [4] | relative KD to parent [2] | Binder
1 | no binding | 95 nM and 100 nM | 0.045 s⁻¹ and 0.035 s⁻¹ | 470000 M⁻¹ s⁻¹ and 350000 M⁻¹ s⁻¹ | – | – | – | – | – | – | – | – | – | chimeric antibody VH0/Vκ0 (antibody, IgG4, V domains shown, IgG4 (S241P), kappa; also called VH0/Vκ0 (control); Chimeric VH0/Vκ0) VH: EVQLVESGGDLVKPGGSLKLACAASGFIFSSHGMSWVRQTPDKRLEWVATISSGGTYTYYPDSVKGRFTISRDNDKNTLYLQMNSLKSEDTAMYYCARHDFDYDAAWFAYWGQGTLVTVSS VL: QIVLTQSPALMSASPGVKVTMTCSANSSVSYMYWYRQKPRSSPKPWIYLTSNLASGVPARFSGSGSGTSYSLTISSMEAEDAATYYCQQWSSNPPTFGSGTKLEIK
2 | – | 420 nM and 490 nM | 0.045 s⁻¹ and 0.06 s⁻¹ | 110000 M⁻¹ s⁻¹ and 120000 M⁻¹ s⁻¹ | 480 | 0.19 | 400000 | 1 | 550 | 0.053 | 96000 | 1 | 1 | VH1/Vκ8 S29A (antibody, IgG4, V domains shown, IgG4 (S241P), kappa; also called Parent; Parent (VH1/Vκ8 S29A)) VH: EVQLLESGGGLVQPGGSLRLSCAASGFIFSSHGMSWVRQAPGKGLEWVATISSGGTYTYYPDSVKGRFTISRDNSKNTLYLQMNSLKAEDTAMYYCARHDFDYDAAWFAYWGQGTLVTVSS VL: EIVLTQSPATLSLSPGERATLSCRANSAVSYMYWYQQKPGQAPRPWIYLTSNRATGVPARFSGSGSGTDYTLTISSLEPEDFAVYYCQQWSSNPPTFGQGTKLEIK
3 | no binding | 58 nM | 0.0078 s⁻¹ | 130000 M⁻¹ s⁻¹ | 95 | 0.0069 | 73000 | 5 | 110 | 0.0074 | 70000 | 5.2 | 8.4 | CP08H03/CP08F05 (antibody, V domains shown, IgG4 (S241P), kappa) VH: EVQLLESGGGLVQPGGSLRLSCAASGFIFSSHGMSWVRQAPGKGLEWVATISSGGTYTYYPDSVKGRFTISRDNSKNTLYLQMNSLKAEDTAMYYCARHDFDYFPYWFAHWGQGTLVTVSS VL: EIVLTQSPATLSLSPGERATLSCRANSAVSYMYWYQQKPGQAPRPWIYLTSNRATGVPARFSGSGSGTDYTLTISSLEPEDFAVYYCQQWTSNPPTFGQGTKLEIK
4 | no binding | 99 nM | 0.009 s⁻¹ | 91000 M⁻¹ s⁻¹ | 120 | 0.0075 | 63000 | 4 | 130 | 0.0085 | 65000 | 4.2 | 4.3 | CP08H03/Vκ8 S29A (antibody, IgG4, V domains shown, IgG4 (S241P), kappa; also called CP08_H03/Parent VL; CP08_H03/Parental) VH: EVQLLESGGGLVQPGGSLRLSCAASGFIFSSHGMSWVRQAPGKGLEWVATISSGGTYTYYPDSVKGRFTISRDNSKNTLYLQMNSLKAEDTAMYYCARHDFDYFPYWFAHWGQGTLVTVSS VL: EIVLTQSPATLSLSPGERATLSCRANSAVSYMYWYQQKPGQAPRPWIYLTSNRATGVPARFSGSGSGTDYTLTISSLEPEDFAVYYCQQWSSNPPTFGQGTKLEIK
